Laboratory results: paper PMC12482196

Columns and labels:
[1] = biological target: VC-YlAaf2 (Yarrowia lipolytica); assay: split reporter (BiFC, NanoBiT); BiFC with the N-terminal and C-terminal regions of Venus in S. cerevisiae YEF473A, cells grown at 30°C for 16 h in liquid SC-Ura-His medium, fluorescence microscopy, nucleus by DAPI
[2] = system: T1, MBP-YlAaf1 (Yarrowia lipolytica), ORF:dd6ddf17; assay: EMSA; conditions: 10 mM Tris-HCl pH 7.5, 50 mM NaCl, 0.5 mM EDTA, 1 mM MgCl2, 4% glycerol, 0.5 mM DTT; 300 ng probe, 0-0.5 ug protein in 20 uL; 4% native PAGE in 0.5x TBE at …
T1 sequence: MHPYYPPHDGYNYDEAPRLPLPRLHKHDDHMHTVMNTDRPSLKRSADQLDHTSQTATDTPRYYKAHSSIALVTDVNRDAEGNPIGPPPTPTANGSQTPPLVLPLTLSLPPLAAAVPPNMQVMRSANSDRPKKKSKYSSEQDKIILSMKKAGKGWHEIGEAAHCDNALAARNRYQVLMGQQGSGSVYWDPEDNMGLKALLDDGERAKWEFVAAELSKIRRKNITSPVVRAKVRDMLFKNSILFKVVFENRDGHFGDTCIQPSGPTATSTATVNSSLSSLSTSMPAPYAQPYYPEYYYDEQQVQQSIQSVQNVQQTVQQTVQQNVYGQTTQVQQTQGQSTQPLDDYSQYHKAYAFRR

| Substance | percent of cells with the GFP signal in the nucleus [1] | binding [2] |
| --- | --- | --- |
| VN-YlAaf1 (natural protein) | 17 % of cells | – |
| ACCTCCCTTCGTGGTTTATGACGAAACACGCTTAGCTAAAGTTCTAAAGGCTAATATTACGAACTCTGTGAAAAGGCGAAAAACCACAAAAGGGACGTGTGGTGTTGAAAAGGTGAAAAAGAGAAAACGAAAAGTCTGGCCGAAGTCAAT (double strand) [MHY1 promoter 150-bp probe] | – | no binding |
